Data reported in patent US20250043302A1, “MUTATED HYDROXYPHENYLPYRUVATE DIOXYGENASE POLYPEPTIDE, AND CODING GENE AND USE THEREOF” (BEIJING DABEINONG BIOTECHNOLOGY CO., LTD., priority 2021, published 2025).

Experiments:
Format in all cases: in vivo
[1] = tested on: Arabidopsis thaliana T1 plants; assay: Topramezone tolerance of transgenic Arabidopsis thaliana T1 plants (spray, bleached leaf area grade, damage score); details: 7 DAT, Table 4; for Classification and statistics of the grade of pesticide damage: Grade 0 / Classification and statistics of the grade of pesticide damage: Grade 1 / Classification and statistics of the grade of pesticide damage: Grade 2 / Classification and statistics of the grade of pesticide damage: Grade 3: number of plants; for Scores: pesticide damage score 0-100
Procedure, shortened: (§1)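 T1 transformants selected by glufosinate; 18-day-old plants, with empty-vector and wild-type controls, sprayed with topramezone (25–200 g ai/ha), isoxaflutole (35–280 g ai/ha) or mesotrione (52.5–420 g ai/ha), water as 0×. Bleached leaf area fraction scored at 7 DAT as grades 0–3.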

[2] = tested on: Arabidopsis thaliana T1 plants; assay: Isoxaflutole tolerance of transgenic Arabidopsis thaliana T1 plants (spray, bleached leaf area grade, damage score); design: Scores (pesticide damage): scale not given here; details: spray, Arabidopsis thaliana T1 plants; for Classification and statistics of the grade of pesticide damage: Grade 0 (number of plants) / Classification and statistics of the grade of pesticide damage: Grade 1 (number of plants) / Classification and statistics of the grade of pesticide damage: Grade 2 (number of plants) / Classification and statistics of the grade of pesticide damage: Grade 3 (number of plants): 16 plants
Procedure, shortened: as §1

[3] = tested on: Arabidopsis thaliana T1 plants; assay: Mesotrione tolerance of transgenic Arabidopsis thaliana T1 plants (spray, bleached leaf area grade, damage score); design: Scores: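 damage score 0-100 computed as Σ(N×S)/(T×M)×100 over grades 0-3 with higher meaning more damage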; details: Arabidopsis thaliana T1 plants; for Grade 0 (classification and statistics of the grade of pesticide damage; number of plants) / Grade 1 (classification and statistics of the grade of pesticide damage; number of plants) / Grade 2 (classification and statistics of the grade of pesticide damage; number of plants) / Grade 3 (classification and statistics of the grade of pesticide damage; number of plants): 16 plants
Procedure, shortened: as §1

[4] = isoxaflutole 35 g ai/ha (0.5x field concentration)
[5] = isoxaflutole 70 g ai/ha (1x field concentration)

Molecule	Classification and statistics of the grade of pesticide damage: Grade 0 ([1]; topramezone 25 g ai/ha (1×))	Classification and statistics of the grade of pesticide damage: Grade 1 ([1]; topramezone 25 g ai/ha (1×))	Classification and statistics of the grade of pesticide damage: Grade 2 ([1]; topramezone 25 g ai/ha (1×))	Classification and statistics of the grade of pesticide damage: Grade 3 ([1]; topramezone 25 g ai/ha (1×))	Classification and statistics of the grade of pesticide damage: Grade 0 ([1]; topramezone 100 g ai/ha (4×))	Classification and statistics of the grade of pesticide damage: Grade 1 ([1]; topramezone 100 g ai/ha (4×))	Classification and statistics of the grade of pesticide damage: Grade 2 ([1]; topramezone 100 g ai/ha (4×))	Classification and statistics of the grade of pesticide damage: Grade 3 ([1]; topramezone 100 g ai/ha (4×))	Scores ([1]; topramezone 25 g ai/ha (1×))	Scores ([1]; topramezone 100 g ai/ha (4×))	Resistance evaluation ([1]; topramezone 25 g ai/ha (1×))	Resistance evaluation ([1]; topramezone 100 g ai/ha (4×))	Resistance evaluation [2, 4]	Scores (pesticide damage) [2, 4]	Classification and statistics of the grade of pesticide damage: Grade 0 (number of plants) [2, 4]	Classification and statistics of the grade of pesticide damage: Grade 1 (number of plants) [2, 4]	Classification and statistics of the grade of pesticide damage: Grade 2 (number of plants) [2, 4]	Classification and statistics of the grade of pesticide damage: Grade 3 (number of plants) [2, 4]	Resistance evaluation [2, 5]	Scores (pesticide damage) [2, 5]	further results
HvHPPDm-F372A-02: nucleotide sequence encoding Hordeum vulgare HPPD with F372A; vector DBN11763 (nucleic acid, HvHPPDm-F372A-02 Nucleotide Sequence, vector DBN11763) DNA: ATGCCGCCGACGCCCACCACCCCAGCAGCTACCGGAGCTGCGGCTGCAGTAACCCCTGAGCATGCTCGGCCCCACAGGATGGTGAGGTTTAATCCAAGATCAGATCGTTTTCATACACTCTCGTTCCACCATGTTGAGTTCTGGTGCGCCGACGCGGCTTCAGCGGCCGGGAGGTTCGCCTTCGCGCTGGGGGCCCCTCTTGCCGCGCGTAGTGATTTGTCTACTGGGAATTCAGCGCACGCGTCCCAGCTTCTCCGAAGCGGCAGTCTCGCCTTTCTCTTCACTGCACCATATGCAAATGGATGTGATGCAGCAACTGCTTCCCTGCCGAGCTTTTCTGCGGATGCCGCGAGGCGATTCAGTGCTGACCATGGGATCGCCGTCCGGTCAGTTGCTCTTAGAGTGGCTGATGCTGCTGAGGCATTCAGGGCTTCAAGGCGTCGTGGTGCACGCCCGGCGTTTGCCCCGGTTGATCTTGGGCGGGGGTTTGCTTTTGCAGAGGTGGAGCTGTACGGCGACGTGGTGCTCCGATTTGTTTCTCACCCGGACGGCACTGATGTGCCCTTCTTGCCAGGATTTGAAGGTGTGACCAACCCTGATGCCGTGGATTATGGACTCACAAGATTTGATCATGTGGTTGGCAATGTTCCTGAATTGGCACCTGCTGCCGCTTACATCGCAGGTTTTACTGGCTTCCATGAATTTGCTGAATTCACGGCGGAGGATGTTGGTACAACTGAGTCAGGGCTGAACAGTGTTGTTTTAGCCAACAACTCAGAAGGAGTTCTCCTTCCCTTGAATGAACCTGTTCATGGAACCAAGCGCCGCTCCCAAATTCAAACATTTCTTGAGCACCACGGCGGCCCTGGTGTTCAACATATTGCTGTCGCCTCTAGCGACGTCCTGCGTACATTACGCAAGATGAGGGCTCGGTCCGCAATGGGTGGTTTCGACTTCCTCCCTCCACCATTGCCAAAATATTATGAAGGCGTCAGAAGACTTGCAGGAGATGTCCTCTCTGAAGCTCAGATCAAGGAGTGCCAAGAACTTGGCGTCTTGGTTGATAGAGATGACCAAGGAGTACTTCTGCAGATAGCCACAAAACCCGTTGGTGACAGGCCAACTCTTTTCCTGGAGATGATTCAGAGAATTGGCTGCATGGAGAAAGATGAAAGAGGCGAGGAGTACCAGAAGGGTGGTTGTGGAGGCTTTGGAAAAGGAAACTTCTCAGAGCTGTTCAAGTCCATAGAAGATTACGAGAAAAGTCTAGAAGCCAAGCAGTCTGCTGCAGTGCAAGGTTCCTGA	15	1	0	0	8	8	0	0	2	17	highly	moderately	Moderately	33	1	14	1	0	Poorly	44	Classification and statistics of the grade of pesticide damage: Grade 0 (number of plants) [2, 5]: 0; Classification and statistics of the grade of pesticide damage: Grade 1 (number of plants) [2, 5]: 12; Classification and statistics of the grade of pesticide damage: Grade 2 (number of plants) [2, 5]: 3; Classification and statistics of the grade of pesticide damage: Grade 3 (number of plants) [2, 5]: 1; Resistance evaluation ([3]; mesotrione 52.5 g ai/ha): Highly resistant; Scores ([3]; mesotrione 52.5 g ai/ha): 15; Grade 0 (classification and statistics of the grade of pesticide damage; number of plants) ([3]; mesotrione 52.5 g ai/ha): 9; Grade 1 (classification and statistics of the grade of pesticide damage; number of plants) ([3]; mesotrione 52.5 g ai/ha): 7; Grade 2 (classification and statistics of the grade of pesticide damage; number of plants) ([3]; mesotrione 52.5 g ai/ha): 0; Grade 3 (classification and statistics of the grade of pesticide damage; number of plants) ([3]; mesotrione 52.5 g ai/ha): 0; Resistance evaluation ([3]; mesotrione 105 g ai/ha): Poorly resistant; Scores ([3]; mesotrione 105 g ai/ha): 56; Grade 0 (classification and statistics of the grade of pesticide damage; number of plants) ([3]; mesotrione 105 g ai/ha): 0; Grade 1 (classification and statistics of the grade of pesticide damage; number of plants) ([3]; mesotrione 105 g ai/ha): 9; Grade 2 (classification and statistics of the grade of pesticide damage; number of plants) ([3]; mesotrione 105 g ai/ha): 3; Grade 3 (classification and statistics of the grade of pesticide damage; number of plants) ([3]; mesotrione 105 g ai/ha): 4
HvHPPDm-F383W-02: nucleotide sequence encoding Hordeum vulgare HPPD with F383W; vector DBN11764 (nucleic acid, HvHPPDm-F383W-02 Nucleotide Sequence, vector DBN11764) DNA: ATGCCGCCGACGCCCACCACCCCAGCAGCTACCGGAGCTGCGGCTGCAGTAACCCCTGAGCATGCTCGGCCCCACAGGATGGTGAGGTTTAATCCAAGATCAGATCGTTTTCATACACTCTCGTTCCACCATGTTGAGTTCTGGTGCGCCGACGCGGCTTCAGCGGCCGGGAGGTTCGCCTTCGCGCTGGGGGCCCCTCTTGCCGCGCGTAGTGATTTGTCTACTGGGAATTCAGCGCACGCGTCCCAGCTTCTCCGAAGCGGCAGTCTCGCCTTTCTCTTCACTGCACCATATGCAAATGGATGTGATGCAGCAACTGCTTCCCTGCCGAGCTTTTCTGCGGATGCCGCGAGGCGATTCAGTGCTGACCATGGGATCGCCGTCCGGTCAGTTGCTCTTAGAGTGGCTGATGCTGCTGAGGCATTCAGGGCTTCAAGGCGTCGTGGTGCACGCCCGGCGTTTGCCCCGGTTGATCTTGGGCGGGGGTTTGCTTTTGCAGAGGTGGAGCTGTACGGCGACGTGGTGCTCCGATTTGTTTCTCACCCGGACGGCACTGATGTGCCCTTCTTGCCAGGATTTGAAGGTGTGACCAACCCTGATGCCGTGGATTATGGACTCACAAGATTTGATCATGTGGTTGGCAATGTTCCTGAATTGGCACCTGCTGCCGCTTACATCGCAGGTTTTACTGGCTTCCATGAATTTGCTGAATTCACGGCGGAGGATGTTGGTACAACTGAGTCAGGGCTGAACAGTGTTGTTTTAGCCAACAACTCAGAAGGAGTTCTCCTTCCCTTGAATGAACCTGTTCATGGAACCAAGCGCCGCTCCCAAATTCAAACATTTCTTGAGCACCACGGCGGCCCTGGTGTTCAACATATTGCTGTCGCCTCTAGCGACGTCCTGCGTACATTACGCAAGATGAGGGCTCGGTCCGCAATGGGTGGTTTCGACTTCCTCCCTCCACCATTGCCAAAATATTATGAAGGCGTCAGAAGACTTGCAGGAGATGTCCTCTCTGAAGCTCAGATCAAGGAGTGCCAAGAACTTGGCGTCTTGGTTGATAGAGATGACCAAGGAGTACTTCTGCAGATATTTACAAAACCCGTTGGTGACAGGCCAACTCTTTGGCTGGAGATGATTCAGAGAATTGGCTGCATGGAGAAAGATGAAAGAGGCGAGGAGTACCAGAAGGGTGGTTGTGGAGGCTTTGGAAAAGGAAACTTCTCAGAGCTGTTCAAGTCCATAGAAGATTACGAGAAAAGTCTAGAAGCCAAGCAGTCTGCTGCAGTGCAAGGTTCCTGA	4	6	5	1	0	0	0	16	40	100	poorly	non-resistant (non-resistant plants (scores 68-100))	Poorly	67	0	1	14	1	Non-resistant	100	Classification and statistics of the grade of pesticide damage: Grade 0 (number of plants) [2, 5]: 0; Classification and statistics of the grade of pesticide damage: Grade 1 (number of plants) [2, 5]: 0; Classification and statistics of the grade of pesticide damage: Grade 2 (number of plants) [2, 5]: 0; Classification and statistics of the grade of pesticide damage: Grade 3 (number of plants) [2, 5]: 16; Resistance evaluation ([3]; mesotrione 52.5 g ai/ha): Moderately; Scores ([3]; mesotrione 52.5 g ai/ha): 33; Grade 0 (classification and statistics of the grade of pesticide damage; number of plants) ([3]; mesotrione 52.5 g ai/ha): 2; Grade 1 (classification and statistics of the grade of pesticide damage; number of plants) ([3]; mesotrione 52.5 g ai/ha): 12; Grade 2 (classification and statistics of the grade of pesticide damage; number of plants) ([3]; mesotrione 52.5 g ai/ha): 2; Grade 3 (classification and statistics of the grade of pesticide damage; number of plants) ([3]; mesotrione 52.5 g ai/ha): 0; Resistance evaluation ([3]; mesotrione 105 g ai/ha): Non-resistant; Scores ([3]; mesotrione 105 g ai/ha): 100; Grade 0 (classification and statistics of the grade of pesticide damage; number of plants) ([3]; mesotrione 105 g ai/ha): 0; Grade 1 (classification and statistics of the grade of pesticide damage; number of plants) ([3]; mesotrione 105 g ai/ha): 0; Grade 2 (classification and statistics of the grade of pesticide damage; number of plants) ([3]; mesotrione 105 g ai/ha): 0; Grade 3 (classification and statistics of the grade of pesticide damage; number of plants) ([3]; mesotrione 105 g ai/ha): 16
